According to patent publication US20230322952A1 (BIOMUNEX PHARMACEUTICALS, published 2023):

Assays:
[1] = target: T1, CD19 expressed on the cell surface of tumor cells (UniProt P15391 20-556, limits assumed); assay: cell-based or functional assay
T1 sequence (looked up): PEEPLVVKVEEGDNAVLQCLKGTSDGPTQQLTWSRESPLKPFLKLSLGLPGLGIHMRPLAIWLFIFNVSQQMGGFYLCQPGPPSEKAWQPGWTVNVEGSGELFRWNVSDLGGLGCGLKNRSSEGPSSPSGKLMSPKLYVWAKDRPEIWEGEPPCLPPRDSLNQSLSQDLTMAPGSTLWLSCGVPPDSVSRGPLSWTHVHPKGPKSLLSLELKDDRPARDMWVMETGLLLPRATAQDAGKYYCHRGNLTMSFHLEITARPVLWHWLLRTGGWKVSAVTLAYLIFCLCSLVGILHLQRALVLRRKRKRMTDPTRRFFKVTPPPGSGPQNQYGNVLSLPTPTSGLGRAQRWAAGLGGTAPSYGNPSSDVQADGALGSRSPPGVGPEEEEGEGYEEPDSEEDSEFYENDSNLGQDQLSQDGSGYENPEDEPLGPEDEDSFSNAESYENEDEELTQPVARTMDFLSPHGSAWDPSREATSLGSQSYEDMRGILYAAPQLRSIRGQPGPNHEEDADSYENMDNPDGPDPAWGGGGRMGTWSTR

[2] = target: T2, Vα7.2 TCR chain expressed on Vα7.2+CD8+ MAIT cells (human); assay: flow cytometry on Vα7.2+ cells among human CD8+ T cells
T2 construct: whole, on cells; also called TCR Vα7.2 chain; Vα7.2+ cells
T2 sequence (A0A0B4J238 19-106): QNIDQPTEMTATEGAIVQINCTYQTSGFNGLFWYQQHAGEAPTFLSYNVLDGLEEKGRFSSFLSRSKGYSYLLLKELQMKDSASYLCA
Experimental: The anti-Vα7.2/anti-CD19 Fab-Fab was then tested for binding on Vα7.2+CD8⁺ T cells. The assay was performed by flow cytometry. Human CD8⁺ T cells were isolated from purified peripheral blood mononuclear cells (PBMCs). Briefly, leukapheresis packs coming from healthy donors were centrifuged in ficoll gradients and the PBMCs were collected. CD8⁺ T cells were then isolated with a commercial negative selection kit (Miltenyi Biotec). These cells were then used to determine binding of anti-Vα7.2/anti-CD19 […] on Vα7.2⁺ cells. Cells were washed with PBS and stained with a Fixable Viability Dye (eFluor™ 780, ThermoFisher) and the human Fc Block reagent (BD) (in PBS for 25 min at 4° C.). The cells were then washed with FACS buffer (PBS, 2 mM EDTA, 0.5% BSA) and stained with different concentrations of anti-Vα7.2/anti-CD19 Fab-Fab (Table 3, shown in both nM and μg/ml) for 1 h at 4° C. An irrelevant Fab-Fab was used as a negative control. Following washing (5×), the cells were stained with a secondary goat anti-human antibody conjugated with Phycoerythrin (Jackson Immunoresearch) and an anti-CD8 antibody (Biolegend) for 45 min at 4° C. The cells were then analyzed in the MACSquant flow cytometer.
Depending on the donor, Vα7.2⁺ cells range between 1 to 10% of CD8⁺ T cells.

B1: anti-CD19/anti-Vα7.2 Fab-Fab (bispecific antibody)
heavy: QVQLQQSGAELVRPGSSVKISCKASGYAFSSYWMNWVKQRPGQGLEWIGQIWPGDGDTNYNGKFKGKATLTADESSSTAYMQLSSLASEDSAVYFCARRETTTVGRYYYAMDYWGQGTTVTVSSASTKGPSVFPLAPSSKSTSGGTAALGCLVKDYFPEPVTVSWNSGALTSGVHTFPAVLQSSGLYSLSSVVDVPSSSLGTQTYICNVNHKPSNTKVDKRVEPKSCDKTHTAPPAPAPELLGGPAAPPAPAPAGGEVQLQQSGAELVKPGASVKLSCTASGFNIKDTHMHWVKQRPEQGLEWIGRTDPASGDTKYDPKFQGKATITADTSSNTAYLHLSSLTSEDTAVYYCAHYYRDDVNYAMDYWGQGTTVTVSSASTKGPSVFPQAPSSKSTSGGTAALGCLVKDYFPEPVTVSWNSGALTSGVHTFPAVLQSSGLYSLVSVVTVPSSSLGTQTYICNVNHKPSNTKVDKRVEPKSC
light 1: not shown
light 2: DIVMTQSQKFLSTSVGDRVSVTCKARQNVGSNVAWYQQKPGQSPKSLIYSSSFRYSGVPDRFTGSGSGTDFTLTISNVQSEDLAEYFCQQYNTYPYTFGGGTELEIKRTVAAPSVFIFPPSDEQLKSGTASVTCLLNNFYPREAKVQWKVDNALQSGNSQESVTEQDSKDSTYSLVSTLTLSKADYEKHKVYACEVTHQGLSSPVTKSFNRGEC
[1]
  percentage of CD19+ A-549 tumor cells lysis: ≤ 30%

B2: anti-CD19/anti-Vα7.2 BiXAb (bispecific antibody, human IgG1, kappa, L234A L235A)
heavy: not shown
light 1: not shown
light 2: DIVMTQSQKFLSTSVGDRVSVTCKARQNVGSNVAWYQQKPGQSPKSLIYSSSFRYSGVPDRFTGSGSGTDFTLTISNVQSEDLAEYFCQQYNTYPYTFGGGTELEIKRTVAAPSVFIFPPSDEQLKSGTASVTCLLNNFYPREAKVQWKVDNALQSGNSQESVTEQDSKDSTYSLVSTLTLSKADYEKHKVYACEVTHQGLSSPVTKSFNRGEC
[1]
  percentage of CD19+ A-549 tumor cells lysis: ≤ 30%

B3: anti-Vα7.2/anti-CD19 BiXAb (bispecific antibody, human IgG1, kappa, L234A L235A)
heavy: not shown
light 1: not shown
light 2: DIVMTQSQKFLSTSVGDRVSVTCKARQNVGSNVAWYQQKPGQSPKSLIYSSSFRYSGVPDRFTGSGSGTDFTLTISNVQSEDLAEYFCQQYNTYPYTFGGGTELEIKRTVAAPSVFIFPPSDEQLKSGTASVTCLLNNFYPREAKVQWKVDNALQSGNSQESVTEQDSKDSTYSLVSTLTLSKADYEKHKVYACEVTHQGLSSPVTKSFNRGEC
[1]
  percentage of CD19+ A-549 tumor cells lysis: ≤ 30%

B4: anti-Vα7.2/anti-CD19 Fab-Fab (bispecific antibody)
heavy: EVQLQQSGAELVKPGASVKLSCTASGFNIKDTHMHWVKQRPEQGLEWIGRTDPASGDTKYDPKFQGKATITADTSSNTAYLHLSSLTSEDTAVYYCAHYYRDDVNYAMDYWGQGTTVTVSSASTKGPSVFPQAPSSKSTSGGTAALGCLVKDYFPEPVTVSWNSGALTSGVHTFPAVLQSSGLYSLVSVVTVPSSSLGTQTYICNVNHKPSNTKVDKRVEPKSCDKTHTAPPAPAPELLGGPAAPPAPAPAGGQVQLQQSGAELVRPGSSVKISCKASGYAFSSYWMNWVKQRPGQGLEWIGQIWPGDGDTNYNGKFKGKATLTADESSSTAYMQLSSLASEDSAVYFCARRETTTVGRYYYAMDYWGQGTTVTVSSASTKGPSVFPLAPSSKSTSGGTAALGCLVKDYFPEPVTVSWNSGALTSGVHTFPAVLQSSGLYSLSSVVDVPSSSLGTQTYICNVNHKPSNTKVDKRVEPKSC
light 1: not shown
light 2: DIVMTQSQKFLSTSVGDRVSVTCKARQNVGSNVAWYQQKPGQSPKSLIYSSSFRYSGVPDRFTGSGSGTDFTLTISNVQSEDLAEYFCQQYNTYPYTFGGGTELEIKRTVAAPSVFIFPPSDEQLKSGTASVTCLLNNFYPREAKVQWKVDNALQSGNSQESVTEQDSKDSTYSLVSTLTLSKADYEKHKVYACEVTHQGLSSPVTKSFNRGEC
notes: Tandem Fab-Fab without Fc; anti-Vα7.2 Fab (from clone 3C10) at the N-terminus; also called Vα7.2/CD19 Fab-Fab
[1]
  percentage of CD19+ A-549 tumor cells lysis: ≤ 30%
[2]
  EC50: 3.49 nM
